# Reference: patent US20230250181A1 (published 2023)
# Columns and labels:
# [1] = target: T1, recombinant Human Fc gamma RI/CD64 Protein (R&D systems, 1257-FC-050, CF) (human, UniProt P12314 16-288); assay: ELISA; antibody coated on plate, recombinant receptor titrated
# T1 construct: Bought protein; also called FcγRI; FcgRI
# Method: (§1) The interaction of the unmodified and of conjugated anti-PD1 antibodies with human Fc gamma receptors I (FcγRI/CD64), with human Fc gamma receptors Ha (FcγRIIa/CD32a), with inhibitory human Fc gamma receptors IIb (FcγRIIb/CD32b), and with human Fc gamma receptors III FcγR3a/CD16 were measured by ELISA. Briefly, Corning high-binding half-area plates (Fisher Scientific, Reinach, Switzerland) were coated overnight at 4° C. with 25 μl of unmodified and of conjugated anti-PD1 antibodies at 2.5 μg/ml in PBS. Plates were then washed four times with 100 μl of PBS-0.02% Tween20. Plates surfaces were blocked with 25 μl of PBS-0.02% Tween20-1% BSA at 37° C. during 1 h. Plates were then washed four times with 100 μl of PBS-0.02% Tween20. Then twenty-five microliters of either recombinant Human Fc gamma RI/CD64 Protein (R&D systems, 1257-FC-050, CF), recombinant Human Fc gamma RIIA/CD32a (H167) Protein (R&D systems, 9595-CD-050, CF), recombinant Human Fc gamma RIIB/CD32b Avi-tag Protein (R&D systems, AVI1875-050, CF), or recombinant Human Fc gamma RIIIA/CD16a Protein (R&D systems, 4325-FC-050; CF) were added in five-fold serial dilutions ranging from 1000 nM to 0.001 nM into PBS-0.02% Tween20-0.1% BSA and incubated at 37° C. during 2 h. […] ELISA signal was then measured at 450 nm on an EnSpire plate reader from Perkin Elmer (Schwerzenbach, Switzerland). […]
# [2] = target: T2, recombinant Human Fc gamma RIIIA/CD16a Protein (R&D systems, 4325-FC-050; CF) (human, UniProt P08637 17-208, limits assumed); assay: as above
# T2 construct: Bought protein; also called FcγRIIIa; FcgRIIIa
# T2 sequence (P08637 17-208 limits assumed): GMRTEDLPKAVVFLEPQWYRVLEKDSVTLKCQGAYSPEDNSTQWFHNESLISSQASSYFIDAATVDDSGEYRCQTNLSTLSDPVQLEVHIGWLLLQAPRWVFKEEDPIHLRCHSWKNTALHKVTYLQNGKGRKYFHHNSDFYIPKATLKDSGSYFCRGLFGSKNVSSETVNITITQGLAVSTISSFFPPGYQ
# Method: as §1
# [3] = target: T3, recombinant biotinylated human FcRn (human, UniProt P55899 24-297, limits assumed, biotinylated); assay: AlphaLISA competition at pH 6; test molecule competes with human IgG acceptor beads for biotinylated human FcRn
# T3 construct: also called human neonatal Fc receptor
# T3 sequence (P55899 24-297 limits assumed, form in doubt): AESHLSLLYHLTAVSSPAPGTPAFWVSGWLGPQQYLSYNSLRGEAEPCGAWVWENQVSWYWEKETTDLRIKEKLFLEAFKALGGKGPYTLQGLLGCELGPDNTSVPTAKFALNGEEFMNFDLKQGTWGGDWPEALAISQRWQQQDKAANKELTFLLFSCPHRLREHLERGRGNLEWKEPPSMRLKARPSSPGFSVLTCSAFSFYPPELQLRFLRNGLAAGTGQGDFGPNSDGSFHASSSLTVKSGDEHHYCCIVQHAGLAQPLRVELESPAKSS
# Method: The interaction of the unmodified and of conjugated anti-PD1 antibodies with the human neonatal Fc receptor (FcRn) at pH 6 was measured using the AlphaLISA® Human FcRn Binding Kit (AL3095C) from Perkin Elmer (Schwerzenbach, Switzerland).
# After 90 min at 23° C. in the dark, AlphaLISA® signal was measured on an EnSpire plate reader (Excitation at 680 nm, Emission at 615 nm) from Perkin Elmer (Schwerzenbach, Switzerland).
# [4] = target: T4, recombinant biotinylated PD1/CD279 protein from Biolegend (789406) (UniProt Q15116 25-167, limits assumed, biotinylated); assay: ELISA; antibody coated on plate, biotinylated PD-1 titrated, streptavidin-HRP
# T4 construct: also called PD1/CD279 ligand
# T4 sequence (Q15116 25-167 limits assumed): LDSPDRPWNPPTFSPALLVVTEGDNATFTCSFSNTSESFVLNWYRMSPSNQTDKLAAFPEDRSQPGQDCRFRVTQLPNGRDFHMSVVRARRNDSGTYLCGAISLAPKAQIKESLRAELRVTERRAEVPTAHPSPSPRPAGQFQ
# Method: The interaction of the unmodified and of conjugated anti-PD1 antibodies with PD-1 (CD279) were measured by ELISA assay. For these studies, Corning high-binding half-area plates (Fisher Scientific, Reinach, Switzerland) were coated overnight at 4° C. with 25 μl of unmodified or conjugated anti-PD1 antibodies at 2.5 μg/ml in PBS. Plates were then washed four times with 100 μl of PBS-0.02% Tween20. Plate surfaces were blocked with 25 μl of PBS-0.02% Tween20-1% BSA at 37° C. during 1 h. Plates were then washed four times with 100 μl of PBS-0.02% Tween20. […] Plates were then washed four times with 100 μl of PBS-0.02% Tween20. Twenty-five microliters of Streptavidin-Horseradish peroxidase (#RABHRP3, Merck, Buchs, Switzerland) diluted at 1:500 in PBS-0.02% Tween20-0.1% BSA were added to each well and incubated at Room Temperature during 30 min. Plates were then washed four times with 100 μl of PBS-0.02% Tween20. Fifty microliters of TMB substrate reagent (#CL07, Merck, Buchs, Switzerland) were added to each well and incubated at 37° C. during 5 min. After 5 min at 37° C., Horseradish peroxidase reaction was stopped by adding 50 μl/well of 0.5M H₂SO₄ stop solution. ELISA signal was then measured at 450 nm on an EnSpire plate reader from Perkin Elmer (Schwerzenbach, Switzerland).
# T1 sequence (P12314 16-288 limits assumed): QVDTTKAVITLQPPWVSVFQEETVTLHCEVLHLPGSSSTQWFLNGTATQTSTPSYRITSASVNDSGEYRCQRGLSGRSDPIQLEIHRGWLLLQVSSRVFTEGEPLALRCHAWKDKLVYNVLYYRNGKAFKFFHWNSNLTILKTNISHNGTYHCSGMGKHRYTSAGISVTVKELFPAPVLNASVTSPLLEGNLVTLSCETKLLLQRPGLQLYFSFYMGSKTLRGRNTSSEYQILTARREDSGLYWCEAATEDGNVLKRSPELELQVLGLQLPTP
Binder,Kd [1],Kd [2],Kd [3],Kd [4]
"Pembrolizumab (antibody, human IgG4 S228P, kappa, also called Lambrolizumab) heavy: not shown light: EIVLTQSPATLSLSPGERATLSCRASKGVSTSGYSYLHWYQQKPGQAPRLLIYLASYLESGVPARFSGSGSGTDFTLTISSLEPEDFAVYYCQHSRDLPLTFGGGTKVEIKRTVAAPSVFIFPPSDEQLKSGTASVVCLLNNFYPREAKVQWKVDNALQSGNSQESVTEQDSKDSTYSLSSTLTLSKADYEKHKVYACEVTHQGLSSPVTKSFNRGEC",0.000488 µM,0.289 µM,0.00731 µM,
"Composition K (antibody, not fully specified; Composition AB: Nle at 23, 39, 46; Hse at 41, 71, 104; ~0.5 kDa PEG on Y45; 0.5 kDa PEG capped with azide on F42Y, reacted with DBCO on K288 (EU numbering) of the antibody's Fc region, Immunocytokine; linker at K288 of the Fc region) VH: QVQLVQSGAEVKKPGASVKVSCKASGYTFTSYYMYWVRQAPGQGLEWMGGVNPSNGGTNFNEKFKSRVTITADKSTSTAYMELSSLRSEDTAVYYCARRDYRYDMGFDYWGQGTTVTVSS VL: EIVLTQSPATLSLSPGERATISCRASKGVSTSGYSYLHWYQQKPGQAPRLLIYLASYLESGVPARFSGSGSGTDFTLTISSLEPEDFATYYCQHSRELPLTFGTGTKVEIK APTSSSTKKTQLQLEHLLLDLQXILNGINNYKNPKLTRXLXYKFYXPKKATELKHLQCLEEELKPLEEVLXLAQSKNFHLRPRDLISNINVIVLELKGSETTFXCEYADETATIVEFLNRWITFSQSIISTLT",,,,41 µM
"Composition J (antibody, not fully specified; Composition AB: Nle at 23, 39, 46; Hse at 41, 71, 104; ~0.5 kDa PEG on Y45; 0.5 kDa PEG capped with azide on F42Y, reacted with DBCO on K288 (EU numbering) of the antibody's Fc region, Immunocytokine; linker at K288 of the Fc region, DAR 1; also called LZM-009 conjugated to Composition AB, DAR 1, K288) VH: QVQLVQSGAEVKKPGASVKVSCKASGYTFTSYYMYWVRQAPGQGLEWMGGVNPSNGGTNFNEKFKSRVTITADKSTSTAYMELSSLRSEDTAVYYCARRDYRYDMGFDYWGQGTTVTVSS VL: EIVLTQSPATLSLSPGERATISCRASKGVSTSGYSYLHWYQQKPGQAPRLLIYLASYLESGVPARFSGSGSGTDFTLTISSLEPEDFATYYCQHSRELPLTFGTGTKVEIK APTSSSTKKTQLQLEHLLLDLQXILNGINNYKNPKLTRXLXYKFYXPKKATELKHLQCLEEELKPLEEVLXLAQSKNFHLRPRDLISNINVIVLELKGSETTFXCEYADETATIVEFLNRWITFSQSIISTLT",,,,27 µM
"LZM-009 (antibody, V domains shown) VH: QVQLVQSGAEVKKPGASVKVSCKASGYTFTSYYMYWVRQAPGQGLEWMGGVNPSNGGTNFNEKFKSRVTITADKSTSTAYMELSSLRSEDTAVYYCARRDYRYDMGFDYWGQGTTVTVSS VL: EIVLTQSPATLSLSPGERATISCRASKGVSTSGYSYLHWYQQKPGQAPRLLIYLASYLESGVPARFSGSGSGTDFTLTISSLEPEDFATYYCQHSRELPLTFGTGTKVEIK",,,,35 µM
"Composition H (antibody, not fully specified; Composition AB: Nle at 23, 39, 46; Hse at 41, 71, 104; ~0.5 kDa PEG on Y45; 0.5 kDa PEG capped with azide on F42Y, reacted with DBCO on K248 (EU numbering) of the antibody's Fc region, Immunocytokine; linker at K248 of the Fc region, DAR 1; also called LZM-009 conjugated to Composition AB, DAR 1, K248) VH: QVQLVQSGAEVKKPGASVKVSCKASGYTFTSYYMYWVRQAPGQGLEWMGGVNPSNGGTNFNEKFKSRVTITADKSTSTAYMELSSLRSEDTAVYYCARRDYRYDMGFDYWGQGTTVTVSS VL: EIVLTQSPATLSLSPGERATISCRASKGVSTSGYSYLHWYQQKPGQAPRLLIYLASYLESGVPARFSGSGSGTDFTLTISSLEPEDFATYYCQHSRELPLTFGTGTKVEIK APTSSSTKKTQLQLEHLLLDLQXILNGINNYKNPKLTRXLXYKFYXPKKATELKHLQCLEEELKPLEEVLXLAQSKNFHLRPRDLISNINVIVLELKGSETTFXCEYADETATIVEFLNRWITFSQSIISTLT",,,,37 µM
